Results from article PMC10705692.
Positions count from the first letter of the chain named. Names may count otherwise.

Legend:
[1] = whole-cell patch clamp, HEK293T, 10 s domoate; settings: glycan lost; control: GluK2 WT
[2] = paired-pulse whole-cell patch clamp, tau recovery; settings: glycan lost; control: GluK2 WT
[3] = whole-cell patch clamp, HEK293T, tau desensitization; settings: glycan lost
[4] = whole-cell patch clamp, 3 ms glutamate, tau deactivation; settings: glycan lost

B1: GluK2 KAR: T277A (protein)
parent chain: MKIISPVLSNLVFSRSIKVLLCLLWIGYSQGTTHVLRFGGIFEYVESGPMGAEELAFRFAVNTINRNRTLLPNTTLTYDTQKINLYDSFEASKKACDQLSLGVAAIFGPSHSSSANAVQSICNALGVPHIQTRWKHQVSDNKDSFYVSLYPDFSSLSRAILDLVQFFKWKTVTVVYDDSTGLIRLQELIKAPSRYNLRLKIRQLPADTKDAKPLLKEMKRGKEFHVIFDCSHEMAAGILKQALAMGMMTEYYHYIFTTLDLFALDVEPYRYSGVNMTGFRILNTENTQVSSIIEKWSMERLQAPPKPDSGLLDGFMTTDAALMYDAVHVVSVAVQQFPQMTVSSLQCNRHKPWRFGTRFMSLIKEAHWEGLTGRITFNKTNGLRTDFDLDVISLKEEGLEKIGTWDPASGLNMTESQKGKPANITDSLSNRSLIVTTILEEPYVLFKKSDKPLYGNDRFEGYCIDLLRELSTILGFTYEIRLVEDGKYGAQDDVNGQWNGMVRELIDHKADLAVAPLAITYVREKVIDFSKPFMTLGISILYRKPNGTNPGVFSFLNPLSPDIWMYILLAYLGVSCVLFVIARFSPYEWYNPHPCNPDSDVVENNFTLLNSFWFGVGALMQQGSELMPKALSTRIVGGIWWFFTLIIISSYTANLAAFLTVERMESPIDSADDLAKQTKIEYGAVEDGATMTFFKKSKISTYDKMWAFMSSRRQSVLVKSNEEGIQRVLTSDYAFLMESTTIEFVTQRNCNLTQIGGLIDSKGYGVGTPMGSPYRDKITIAILQLQEEGKLHMMKEKWWRGNGCPEEESKEASALGVQNIGGIFIVLAAGLVLSVFVAVGEFLYKSKKNAQLEKRSFCSAMVEELRMSLKCQRRLKHKPQAPVIVKTEEVINMHTFNDRRLPGKETMA
increases: other: desensitization rate [1] | other: rate of recovery from desensitization [2] | other: desensitization rate ([3]; control: GluK2 WT) | other: deactivation rate ([4]; control: GluK2 WT)

B2: GluK2 KAR: T277A/R775A (protein)
parent chain: B1 parent chain with R775A
increases: other: desensitization rate ([3]; control: R775A) | other: deactivation rate ([4]; control: R775A)
